# In publication doi:10.1101/2021.11.08.467404:
# Columns and labels:
# [1] = target: microtubules polymerised from porcine brain tubulin (porcine) (UniProt P02550); test: FRAP of fluorescent protein on immobilised microtubules
# [2] = target: microtubules polymerised from porcine brain tubulin (porcine) (UniProt P02550); test: TIRF microscopy of fluorescent protein on immobilised microtubules
# [3] = target: microtubules polymerised from porcine brain tubulin (porcine) (UniProt P02550); test: single-molecule TIRF microscopy on immobilised microtubules
# Sequence of UniProt P02550 (P02550 whole entry): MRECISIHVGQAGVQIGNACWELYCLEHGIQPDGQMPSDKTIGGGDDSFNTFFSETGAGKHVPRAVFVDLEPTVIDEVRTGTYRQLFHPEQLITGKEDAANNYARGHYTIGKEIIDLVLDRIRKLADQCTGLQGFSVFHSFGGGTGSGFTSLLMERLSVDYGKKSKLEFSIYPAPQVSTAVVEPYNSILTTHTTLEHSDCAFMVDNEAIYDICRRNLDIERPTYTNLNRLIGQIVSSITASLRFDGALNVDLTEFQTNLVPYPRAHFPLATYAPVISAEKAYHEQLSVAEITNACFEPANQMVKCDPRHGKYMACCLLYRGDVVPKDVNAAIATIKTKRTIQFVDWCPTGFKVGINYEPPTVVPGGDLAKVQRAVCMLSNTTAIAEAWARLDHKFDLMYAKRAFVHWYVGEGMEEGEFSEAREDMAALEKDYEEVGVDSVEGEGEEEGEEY
substance,measurement,setting,value
GFP-MAP2c (natural protein),fold turnover (FRAP) outside against inside envelopes,[1],4 fold
kinesin-1-GFP (from UniProt P33176 1-963) (natural protein),landing rate (with 600 nM tau-mCherry),[2],0.23 μm^-1s^-1
TMR-MAP2c (natural protein),fold increase of dwell time inside GFP-MAP2c envelopes against outside,[3],3 fold
"TMR-MAP4 (full-length human MAP4, isoform 1) (from UniProt P27816 1-1152) (natural protein)",fold dwell time of single molecules against MAP2c,[3],2 fold
